For assay [1], the target named is T1, human MET (c-Met, hepatocyte growth factor receptor), endogenous on human cell lines (human, UniProt P08581 25-1390).
T1 construct: whole, on cells; also called HGFR
The experiment in a line: flow cytometry, U87MG cells (endogenous MET, low), antibody 10 ug/ml. How it is done: (§1) After one additional wash with FACS buffer, samples were fixed with Cytofix (BD Biosciences, #554655), filtered with FACS buffer and run on an iQue flow cytometer (Intelicyte). Mean fluorescence intensity (MFI) data was determined using FlowJo software (FlowJo LLC).

The target in assay [2] is T1, human MET (c-Met, hepatocyte growth …). The experiment in a line: flow cytometry, NCI-H1993 cells (endogenous MET), antibody 10 ug/ml; expressed as fold above unstained. How it is done: as §1
The target is the same in assay [3]. The experiment in a line: flow cytometry, MKN-45 cells (endogenous MET), antibody 10 ug/ml. How it is done: as §1
The target is the same in assay [4]. The experiment in a line: flow cytometry, Hs746t cells (endogenous MET), antibody 10 ug/ml. On the procedure:
as §1

The target is the same in assay [5]. Kind of assay: flow cytometry, SNU-5 cells (endogenous MET), antibody 10 ug/ml. On the procedure:
as §1

For assay [6] the target is unchanged. The experiment in a line: cell-based or functional assay.
For assay [7] the target is unchanged. The experiment in a line: flow cytometry, A549 cells (endogenous MET), antibody 10 ug/ml. How it is done:
as §1

Assay [8] shares this target. Kind of assay: flow cytometry, EBC-1 cells (endogenous MET), antibody 10 ug/ml. How it is done: as §1
For assay [9] the target is unchanged. Kind of assay: flow cytometry, MDA-MB-231 cells (endogenous MET, low), antibody 10 ug/ml. How it is done:
as §1

Assay [10] has the same target. Kind of assay: cell-based or functional assay. This is another data set of the same source.
Assay [11] deals with human MET (c-Met, HGFR) endogenously expressed on cell lines (human, UniProt P08581 25-1390). The experiment in a line: cell-based or functional assay.
Chain of human MET (c-Met, HGFR) endogenously expressed on cell lines (P08581 25-1390): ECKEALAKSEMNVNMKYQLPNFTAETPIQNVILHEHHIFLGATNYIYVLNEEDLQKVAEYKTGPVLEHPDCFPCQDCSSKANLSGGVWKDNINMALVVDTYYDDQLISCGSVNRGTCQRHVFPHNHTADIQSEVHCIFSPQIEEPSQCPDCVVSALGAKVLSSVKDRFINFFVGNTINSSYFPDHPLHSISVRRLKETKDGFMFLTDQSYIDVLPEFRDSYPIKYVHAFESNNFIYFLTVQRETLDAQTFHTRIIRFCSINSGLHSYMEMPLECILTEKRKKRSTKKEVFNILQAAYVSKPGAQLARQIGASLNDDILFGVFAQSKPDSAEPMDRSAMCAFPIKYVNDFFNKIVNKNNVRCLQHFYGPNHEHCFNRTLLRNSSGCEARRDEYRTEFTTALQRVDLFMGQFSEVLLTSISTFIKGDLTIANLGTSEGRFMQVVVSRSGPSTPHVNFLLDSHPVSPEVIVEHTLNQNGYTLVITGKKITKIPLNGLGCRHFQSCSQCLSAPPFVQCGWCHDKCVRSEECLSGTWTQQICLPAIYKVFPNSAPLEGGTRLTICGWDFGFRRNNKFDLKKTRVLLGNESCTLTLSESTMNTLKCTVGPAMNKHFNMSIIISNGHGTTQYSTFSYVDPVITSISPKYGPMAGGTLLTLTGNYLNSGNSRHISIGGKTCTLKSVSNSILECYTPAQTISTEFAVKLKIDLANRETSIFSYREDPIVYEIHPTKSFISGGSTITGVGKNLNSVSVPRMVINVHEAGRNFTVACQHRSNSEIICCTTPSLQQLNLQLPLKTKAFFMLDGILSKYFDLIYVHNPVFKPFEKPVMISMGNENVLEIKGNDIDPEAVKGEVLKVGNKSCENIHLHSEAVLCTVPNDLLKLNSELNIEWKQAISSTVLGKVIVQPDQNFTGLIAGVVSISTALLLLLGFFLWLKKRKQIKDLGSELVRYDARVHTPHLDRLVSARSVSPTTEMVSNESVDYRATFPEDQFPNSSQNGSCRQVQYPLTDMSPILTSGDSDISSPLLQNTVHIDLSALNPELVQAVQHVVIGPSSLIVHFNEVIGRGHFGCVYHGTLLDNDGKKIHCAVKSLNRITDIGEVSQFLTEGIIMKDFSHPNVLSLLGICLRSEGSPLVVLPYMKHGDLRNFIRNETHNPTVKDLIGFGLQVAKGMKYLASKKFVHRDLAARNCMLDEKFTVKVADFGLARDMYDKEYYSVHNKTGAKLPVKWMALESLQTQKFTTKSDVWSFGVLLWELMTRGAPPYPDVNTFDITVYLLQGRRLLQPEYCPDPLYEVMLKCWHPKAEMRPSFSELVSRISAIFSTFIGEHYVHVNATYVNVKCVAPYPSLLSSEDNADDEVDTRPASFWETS

Data on two molecules can be found in patent US20180134794A1 (Regeneron, published 2018).

T1 sequence (P08581 25-1390 limits assumed, form in doubt): as the sequence (P08581 25-1390) above

B1: H4H14639D (bispecific antibody, human IgG4, V domains shown)
VH 1: EVQLVESGGGLVQPGTSLRLSCAASGFTFDDYAMHWVRQAPGKGLEWVSGITWNSYNIDYADSVKGRFTISRDNAKNSLYLQMNSLRAEDTALYYCAKDDDYSNYVYFDYWGQGTLVTVSS
VH 2: EVQLVESGGGLVQPGGSLRLSCAASGFIVTTNYMTWLRQAPGKGLEWVSLIYSSGHTYYADSVKGRFTISRHNSKNTLYLQMDSLRAEDTAVYYCASAFAADVFDIWGQGTMVTVSS
VL: not shown
notes: human IgG4 Fc; also called No. 122; MET×MET bispecific antibody
As for B1, the “FACS Binding (MFI Fold Above Isotype Control)” value was determined as 18 fold in [1]; 156 fold in assay [3]; 34 fold in assay [4]; 454 fold in [5]; 10 fold in assay [7]; 252 fold in assay [8]. Moreover, the “FACS Binding (MFI Fold Above Isotype Control)” value in assay [9] stood at 12 fold. For the same molecule, in assay [2], the “FACS Binding (MFI fold above unstained, per footnote)” value stood at 188 fold. In assay [6], the “% Inhibition (HEK293/SRE-Luc Blocking Activity, 1 h mAb pre-bind)” value was 95%. In addition, the “EC50 (Ligand (HGF)-Independent HEK293/SRE-Luc Activation)” value in assay [6] stood at 57 pM. In assay [6], the “Fold Response (Ligand (HGF)-Independent HEK293/SRE-Luc Activation)” value turned out to be 1.8 fold. Besides, in [6], the “IC50 (HEK293/SRE-Luc Blocking Activity, 1 h mAb pre-bind)” value amounted to 24 pM. For the same molecule, the “Relative MET Level, NCI-H596 cells, antibody 5 ug/ml, 18 hours, immunoblot” value in assay [10] was 0.24 relative to control (hFc).

B2: H4H14639D (bispecific antibody, V domains shown)
VH 1: B1 VH 1
VH 2: B1 VH 2
VL: not shown
As to B2, the “IC50 (read off the curve), inhibition of HGF-induced SRE-luciferase signal” value in assay [11] is about 400 pM.
